PMC3844517

How the values were obtained:
Assay in all cases: co-IP
[1] = target: Plk4-EGFP A15 (Drosophila) (UniProt O97143)
[2] = target: Plk4-EGFP A16 (Drosophila) (UniProt O97143)
[3] = target: Plk4-EGFP A17 (Drosophila) (UniProt O97143)
[4] = target: Plk4-EGFP A18 (Drosophila) (UniProt O97143)
[5] = target: Plk4-EGFP A19 (Drosophila) (UniProt O97143)
[6] = target: Plk4-EGFP A20 (Drosophila) (UniProt O97143)
[7] = target: Plk4-EGFP A26 (Drosophila) (UniProt O97143)

further fold decrease of Slimb binding (beyond A14) [1]: 2 fold | further fold decrease of Slimb binding (beyond A14) [2]: 2 fold | further fold decrease of Slimb binding (beyond A14) [3]: 2 fold | further fold decrease of Slimb binding (beyond A14) [4]: 2 fold | further fold decrease of Slimb binding (beyond A14) [5]: 2 fold | further fold decrease of Slimb binding (beyond A14) [6]: 2 fold | fold reduction in the amount of associated Slimb [7]: 5 fold
Substance: Slimb (F-box protein of the SCF ubiquitin ligase) (natural protein)
